Measured values: patent publication US20090004190A1, “Rage Fusion Proteins And Methods Of Use” (priority 2006, published 2009)
Several values for one entry are separate records, joined by “and”; a condition that tells them apart may be missing. Equal values may be shown once.

Assays:
[1] = test system: transgenic mice expressing human Swedish mutant APP; test: Mouse model of AD (APP transgenic mice): amyloid deposition and Morris water maze; type: in vivo; conditions: treated for 3 months, vs vehicle and human IgG1
Protocol: Experiments were performed to evaluate whether TTP-4000 could affect amyloid formation and cognitive dysfunction in a mouse model of AD. The experiments utilized transgenic mice expressing the human Swedish mutant amyloid precursor protein (APP) under the control of the PDGF-B chain promoter. Over time, these mice generate high levels of the RAGE ligand, amyloid beta (Aβ).
The APP mice (male) used in this experiment were designed by microinjection of the human APP gene (with the Swedish and London mutations) into mouse eggs under the control of the platelet-derived growth factor B (PDGF-B) chain gene promoter. The mice were generated on a C57BL/6 background and were developed by Molecular Therapeutics Inc. Animals were fed ad libitum and maintained by brother sister mating. The mice generated from this construct develop amyloid deposits starting at 6 months of age. Animals were aged for 6 months and then maintained for 90 days and sacrificed for amyloid quantification.
APP transgenic mice were administered vehicle or TTP4000 every other day [qod (i.p.)] for 90 days starting at 6 months of age. At the end of the experiment, animals were sacrificed and examined for Aβ plaque burden in the brain (i.e., plaque number). A 6-month control APP group was used to determine the baseline of amyloid deposits. In addition, at the end of the study, the animals were subjected to behavioral (Morris water maze) analysis. The investigators were blinded to the study compounds. Samples were given to the mice at 0.25 ml/mouse/every other day.
For histological examination, the animals were anesthetized with an intraperitoneal injection (IP) of sodium pentobarbital (50 mg/kg). The animals were transcardially perfused with 4° C., phosphate-buffered saline (PBS) followed by 4% paraformaldehyde. The brains were removed and placed in 4% paraformaldehyde over night. The brains were processed to paraffin and embedded. Ten serial 30-μm thick sections through the brain were obtained. Sections were subjected to primary antibody overnight at 4° C. (Aβ peptide antibody) in order to detect the amyloid deposits in the brain of the transgenic animals (Guo et al., J. Neurosci., 22:5900-5909 (2002)). Sections were washed in Tris-buffered saline (TBS) and secondary antibody was added and incubated for 1 hour at room temperature. After washing, the sections were incubated as instructed in the Vector ABC Elite kit (Vector Laboratories) and stained with […] (DAB). The reactions were stopped in water and cover-slipped after treatment with xylene. The amyloid area in each section was determined with a computer-assisted image analysis system, consisting of a Power Macintosh computer equipped with a Quick Capture frame grabber card, Hitachi CCD camera mounted on an Olympus microscope and camera stand. NIH Image Analysis Software, v. 1.55 was used. The images were captured and the total area of amyloid was determined over the ten sections. A single operator blinded to treatment status performed all measurements. Summing the amyloid volumes of the sections and dividing by the total number of sections was done to calculate the amyloid volume.
For quantitative analysis, an enzyme-linked immunosorbent assay (ELISA) was used to measure the levels of human total Aβ, Aβtotal and Aβ1-42 in the brains of APP transgenic mice (Biosource International, Camarillo, Calif.). Aβtotal and Aβ1-42 were extracted from mouse brains by guanidine hydrochloride and quantified as described by the manufacturer. […]

[2] = biological target: T1, amyloid-beta (Abeta) (Amyloid Beta (1-40)) (Homo sapiens, UniProt P05067); test: In vitro ligand binding (ELISA) to immobilized amyloid-beta; conditions: ligand 5 micrograms per well; FIG. 7
T1 construct: Amyloid Beta (1-40) from Biosource; purchased Biosource
T1 sequence (P05067 672-711): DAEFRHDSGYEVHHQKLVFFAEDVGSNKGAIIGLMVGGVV
Protocol: (§1) For example, the RAGE fusion protein may be used in a binding assay to identify potential RAGE ligands. In one example embodiment of such a binding assay, a known RAGE ligand may coated onto a solid substrate (e.g., Maxisorb plates) at a concentration of about 5 micrograms per well, where each well contains a total volume of about 100 microliters (μL). The plates may be incubated at 4° C. overnight to allow the ligand to absorb. Alternatively, shorter incubation periods at higher temperature (e.g., room temperature) may be used. […] The RAGE fusion protein bound to the immobilized ligand may be detected in a variety of ways. […] The bound complex may be detected by adding the alkaline phosphatase substrate, para-nitrophenylphosphate (PNPP), and measuring conversion of PNPP to para-nitrophenol (PNP) as an increase in absorbance at 405 nm. […] In the absence of ligand (i.e., coating with only BSA) there was no increase in absorbance. […] Binding was detected by the addition of an immunodetection complex containing a monoclonal mouse anti-human IgG1 diluted 1:11,000 to a final assay concentration (FAC) of 21 ng/100 μL, a biotinylated goat anti-mouse IgG diluted 1:500, to a FAC of […], and an avidin-linked alkaline phosphatase. […]

[3] = biological target: T2, S100b (S100) (Homo sapiens, UniProt P04271); test: In vitro ligand binding (ELISA) to immobilized S100b; conditions: ligand 5 micrograms per well; FIG. 7
T2 sequence (P04271 1-92): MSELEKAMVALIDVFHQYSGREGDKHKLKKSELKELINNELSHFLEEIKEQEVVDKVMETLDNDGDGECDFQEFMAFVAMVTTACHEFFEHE
Protocol: as §1

[4] = biological target: T3, amphoterin (Ampho) (Homo sapiens, UniProt P09429); test: In vitro ligand binding (ELISA) to immobilized amphoterin; conditions: ligand 5 micrograms per well; FIG. 7
T3 sequence (P09429 1-215): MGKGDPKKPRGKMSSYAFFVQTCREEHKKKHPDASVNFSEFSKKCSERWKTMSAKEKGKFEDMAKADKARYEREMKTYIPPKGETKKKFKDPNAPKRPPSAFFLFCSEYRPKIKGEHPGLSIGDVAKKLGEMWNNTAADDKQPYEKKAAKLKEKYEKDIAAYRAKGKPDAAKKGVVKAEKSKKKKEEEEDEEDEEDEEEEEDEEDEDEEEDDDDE
Protocol: as §1

[5] = test system: recurrent diabetes in NOD/LtJ mice with syngeneic islet transplants; test: Syngeneic islet transplantation in diabetic NOD mice; type: in vivo, mouse; conditions: 300 ug LD + 100 ug qod ip
Excerpt: Spontaneous autoimmune non-obese diabetic mice (NOD/LtJ) (12-25 weeks old) served as recipients for islet cells, while young pre-diabetic NOD/LtJ mice (6-7 weeks old) served as donors in syngeneic islet transplantation. Islets for transplantation were isolated as described above in Section A (Allogeneic Islet Transplantation).
Diabetic NOD/LtJ mice received islet grafts within 2 days of the diagnosis of diabetes. 500-600 freshly isolated islets (approximately 550 islet equivalents) from donor mice were picked up with an infusion set and transplanted into the subcapular space of the right kidney.
Test compounds were administered as soon as the islets were transplanted and continued for approximately 8 weeks.
Islet graft function was monitored by serial blood glucose measurements daily for the first 2 weeks after islet transplantation, followed by every other day thereafter. Reversal of diabetes was defined as blood glucose less than 200 mg/dl on two consecutive measurements. Percentage graft loss was determined when blood glucose exceeded 250 mg/dl on two consecutive measurements.

B1: mouse sRAGE: mouse soluble RAGE used as comparator in the AD mouse model (protein, UniProt Q62151 23-340, looked up)
extracellular domain: GQNITARIGEPLVLSCKGAPKKPPQQLEWKLNTGRTEAWKVLSPQGGPWDSVARILPNGSLLLPATGIVDEGTFRCRATNRRGKEVKSNYRVRVYQIPGKPEIVDPASELTASVPNKVGTCVSEGSYPAGTLSWHLDGKLLIPDGKETLVKEETRRHPETGLFTLRSELTVIPTQGGTHPTFSCSFSLGLPRRRPLNTAPIQLRVREPGPPEGIQLLVEPEGGIVAPGGTVTLTCAISAQPPPQVHWIKDGAPLPLAPSPVLLLPEVGHEDEGTYSCVATHPSHGPQESPPVSIRVTETGDEGPAEGSVGESGLGTLA
modifications: extracellular domain
notes: mouse soluble RAGE used as comparator in the AD mouse model
Aβ plaques in the brain ([1]; FIG. 14A): fewer Aβ plaques | cognitive dysfunction (Morris water maze) ([1]; FIG. 14B): less cognitive dysfunction

B2: TTP-3000: three domain RAGE fusion protein: human RAGE V domain and interdomain linker (to residue 136) fused to CH2 and CH3 domains of human IgG1 (protein)
chain: QNITARIGEPLVLKCKGAPKKPPQRLEWKLNTGRTEAWKVLSPQGGGPWDSVARVLPNGSLFLPAVGIQDEGIFRCQAMNRNGKETKSNYRVRVYQIPGKPEIVDSASELTAGPSVFLFPPKPKDTLMISRTPEVTCVVVDVSHEDPEVKFNWYVDGVEVHNAKTKPREEQYNSTYRVVSVLTVLHQDWLNGKEYKCKVSNKALPAPIEKTISKAKGQPREPQVYTLPPSRDELTKNQVSLTCLVKGFYPSDIAVEWESNGQPENNYKTTPPVLDSDGSFFLYSKLTVDKSRWQQGNVFSCSVMHEALHNHYTQKSLSLSPGK
binding to immobilized amyloid-beta (absorbance at 405 nm) [2]: specifically interact | binding to immobilized S100b (absorbance at 405 nm) [3]: specifically interact | binding to immobilized amphoterin (absorbance at 405 nm) [4]: specifically interact | day of graft loss, Mean [5]: 38.43 days | day of graft loss, each animal ([5]; blood glucose exceeded 250 mg/dl): 46 days and 42 days and 41 days and 34 days and 32 days and 30 days and 44 days
